{"source": "patent US20160222109A1", "about": "(DYAX, published 2016)", "key": {"[1]": {"target": "T1, soluble human FcRn (extra-cellular domain of heavy chain and β2M) (human, UniProt P55899 24-297; P61769 21-119)", "T1 construct": "also called shFcRn; soluble hFcRn", "T1 sequence (P55899 24-297 limits assumed, chain 1 of 2)": "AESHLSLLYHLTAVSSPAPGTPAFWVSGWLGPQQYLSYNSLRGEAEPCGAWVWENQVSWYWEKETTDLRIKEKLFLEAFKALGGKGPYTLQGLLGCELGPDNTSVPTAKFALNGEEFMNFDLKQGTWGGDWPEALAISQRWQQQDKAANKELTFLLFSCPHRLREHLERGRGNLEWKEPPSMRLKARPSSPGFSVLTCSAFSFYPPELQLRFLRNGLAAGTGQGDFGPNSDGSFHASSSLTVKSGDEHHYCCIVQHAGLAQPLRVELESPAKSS", "T1 sequence (P61769 21-119 limits assumed, chain 2 of 2)": "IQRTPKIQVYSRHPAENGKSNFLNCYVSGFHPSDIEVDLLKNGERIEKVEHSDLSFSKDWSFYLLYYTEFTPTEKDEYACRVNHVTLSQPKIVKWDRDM", "test": "SPR, sol Fab, pH 7.4"}, "[2]": {"target": "T2, rat FcRn / rat β2M expressed on cells (rat, UniProt P13599 23-366; P07151 21-119)", "T2 construct": "also called rat FcRn (cells); rat fibroblasts expressing rat FcRn", "T2 sequence": "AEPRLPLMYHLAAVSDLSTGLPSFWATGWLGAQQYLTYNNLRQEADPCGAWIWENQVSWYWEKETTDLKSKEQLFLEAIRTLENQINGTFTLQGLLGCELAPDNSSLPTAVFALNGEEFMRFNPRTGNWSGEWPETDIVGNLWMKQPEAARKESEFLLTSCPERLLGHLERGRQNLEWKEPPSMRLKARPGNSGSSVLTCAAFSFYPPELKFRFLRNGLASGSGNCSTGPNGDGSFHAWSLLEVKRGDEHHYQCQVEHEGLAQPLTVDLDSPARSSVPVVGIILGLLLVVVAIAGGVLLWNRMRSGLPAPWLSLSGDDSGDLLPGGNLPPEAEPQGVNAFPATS", "T2 sequence (b2m)": "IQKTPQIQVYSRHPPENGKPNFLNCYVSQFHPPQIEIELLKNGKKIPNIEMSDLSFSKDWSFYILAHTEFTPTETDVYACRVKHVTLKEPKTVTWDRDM", "test": "FACS blocking of IgG-Fc, sol Fab, pH 6"}, "[3]": {"target": "T3, human FcRn / human β2M expressed in 293 C11 cells (human, UniProt P55899 24-365; P61769 21-119)", "T3 construct": "HEK 293 cells engineered to overexpress FcRn; also called hFcRn (cells); hFcRn in THP-1 and Caco-2 cells", "T3 sequence (P55899 24-365 limits assumed, chain 1 of 2)": "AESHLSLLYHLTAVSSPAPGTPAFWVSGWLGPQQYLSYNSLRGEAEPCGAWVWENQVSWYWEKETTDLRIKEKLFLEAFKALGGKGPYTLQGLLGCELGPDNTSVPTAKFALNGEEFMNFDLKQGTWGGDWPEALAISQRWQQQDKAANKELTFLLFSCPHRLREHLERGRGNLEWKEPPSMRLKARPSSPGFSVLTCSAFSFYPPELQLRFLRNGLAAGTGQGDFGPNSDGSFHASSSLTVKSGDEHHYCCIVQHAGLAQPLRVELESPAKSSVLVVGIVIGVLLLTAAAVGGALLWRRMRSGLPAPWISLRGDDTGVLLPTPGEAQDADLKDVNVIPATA", "T3 sequence (P61769 21-119 limits assumed, chain 2 of 2)": "as the sequence (P61769 21-119 limits assumed, chain 2 of 2) above", "test": "FACS blocking of IgG-Fc, sol Fab, pH 6"}, "[4]": {"target": "T1, soluble human FcRn (extra-cellular …)", "test": "SPR 8500, hFcRn pH 6"}, "soluble rat FcRn [5]": {"target": "T4, soluble rat FcRn (rat, UniProt P13599 23-298; P07151 21-119)", "T4 construct": "Soluble protein; whole entries named; also called sol rat FcRn", "T4 sequence": "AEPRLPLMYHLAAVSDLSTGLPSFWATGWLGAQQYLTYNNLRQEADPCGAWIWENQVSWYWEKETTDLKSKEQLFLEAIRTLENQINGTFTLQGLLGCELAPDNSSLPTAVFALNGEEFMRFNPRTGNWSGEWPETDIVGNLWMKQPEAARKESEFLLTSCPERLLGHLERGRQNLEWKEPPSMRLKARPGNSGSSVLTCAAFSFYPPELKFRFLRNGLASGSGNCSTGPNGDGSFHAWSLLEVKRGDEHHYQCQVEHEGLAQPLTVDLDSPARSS", "T4 sequence (b2m)": "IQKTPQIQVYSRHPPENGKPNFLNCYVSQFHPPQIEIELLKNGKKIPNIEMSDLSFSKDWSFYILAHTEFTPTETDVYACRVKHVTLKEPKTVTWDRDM", "test": "SPR 8500, rat FcRn pH 6"}, "soluble rat FcRn [6]": {"target": "T4, soluble rat FcRn", "test": "SPR 8500, sol Fab, pH 6"}, "[7]": {"target": "T1, soluble human FcRn (extra-cellular …)", "test": "SPR 8500, sol Fab, pH 6"}, "[8]": {"target": "T1, soluble human FcRn (extra-cellular …)", "test": "SPR, sol Fab, pH 6.0"}, "[9]": {"target": "T1, soluble human FcRn (extra-cellular …)", "test": "SPR 8500, hFcRn pH 6", "remark": "listed apart in the source"}, "[10]": {"target": "T1, soluble human FcRn (extra-cellular …)", "test": "SPR 8500, hFcRn pH 7.4"}, "soluble rat FcRn [11]": {"target": "T4, soluble rat FcRn", "test": "SPR 8500, rat FcRn pH 6", "remark": "listed apart in the source"}, "[12]": {"target": "T1, soluble human FcRn (extra-cellular …)", "test": "SPR 8500, hFcRn pH 7.4", "remark": "listed apart in the source"}, "soluble rat FcRn [13]": {"target": "T4, soluble rat FcRn", "test": "SPR 8500, rat FcRn pH 7.4; rat FcRn pH 7.4"}, "soluble rat FcRn [14]": {"target": "T4, soluble rat FcRn", "test": "SPR 8500, sol Fab, pH 7.5"}, "[15]": {"target": "T1, soluble human FcRn (extra-cellular …)", "test": "SPR 8500, sol Fab, pH 7.5"}, "soluble rat FcRn [16]": {"target": "T4, soluble rat FcRn", "test": "SPR 8500, rat FcRn pH 7.4"}, "[17]": {"target": "T1, soluble human FcRn (extra-cellular …)", "test": "Biacore, hFcRn on chip, IgG flowed, pH 7.4"}, "[18]": {"target": "T1, soluble human FcRn (extra-cellular …)", "test": "Biacore, IgG on chip, hFcRn flowed, pH 7.4"}, "[19]": {"target": "T1, soluble human FcRn (extra-cellular …)", "test": "Biacore, IgG on chip, hFcRn flowed, pH 6"}, "[20]": {"target": "T3, human FcRn / human β2M expressed in 293 …", "test": "FACS blocking, hFcRn cells, pH 6"}, "[21]": {"target": "T1, soluble human FcRn (extra-cellular …)", "test": "Biacore, hFcRn on chip, IgG flowed, pH 6"}, "[22]": {"target": "T1, soluble human FcRn (extra-cellular …)", "test": "Biacore, IgG on chip, hFcRn flowed, pH 7.4", "remark": "listed apart in the source"}}}
{"binder": "532A-M0090-F11 soluble Fab (Fab, sFab from phage display; CH1 not set out for the Fab; also called M90-F11 (Fab); M090-F11) VH: EVQLLESGGGLVQPGGSLRLSCAASGFTFSEYAMGWVRQAPGKGLEWVSSIGSSGGQTKYADSVKGRFTISRDNSKNTLYLQMNSLRAEDTAVYYCARLSTGELYWGQGTLVTVSS light: QSVLTQPASVSGSPGQSITISCTGTGSDVGSYNLVSWYQKYPGKAPKLIIYGDSQRPSGLSSRFSGSKSGNSASLTISGLQAEDEADYYCCSYAGSGIYVFGSGTKVTVLSQPKANPTVTLFPPSSEELQANKATLVCLISDFYPGAVTVAWKADGSPVKAGVETTKPSKQSNNKYAASSYLSLTPEQWKSHRSYSCQVTHEGSTVEKTVAPAECS", "values": [{"measurement": "Fold Kd Improvement Over Germlined M90-F11", "setting": "[1]", "result": 2.3, "unit": "fold"}, {"measurement": "Kd", "setting": "[1]", "result": 13, "unit": "nM"}, {"measurement": "IC50", "setting": "[2]", "result": 6480, "unit": "nM"}, {"measurement": "IC50", "setting": "[3]", "result": 13, "unit": "nM"}, {"measurement": "Kd", "setting": "[4]", "result": 9.2, "unit": "nM"}, {"measurement": "Kd", "setting": "soluble rat FcRn [5]", "result": 20.3, "unit": "nM"}, {"measurement": "Kd", "setting": "soluble rat FcRn [6]", "result": 31.2, "unit": "nM"}, {"measurement": "Kd", "setting": "[7]", "result": 9.2, "unit": "nM"}, {"measurement": "Kd", "setting": "[8]", "result": 12, "unit": "nM"}, {"measurement": "Kd", "setting": "[9]", "result": 6.11, "unit": "nM"}, {"measurement": "Kd", "setting": "[10]", "result": 19.1, "unit": "nM"}, {"measurement": "Kd", "setting": "soluble rat FcRn [11]", "result": 31.2, "unit": "nM"}, {"measurement": "Kd", "setting": "[12]", "result": 7.08, "unit": "nM"}, {"measurement": "Kd", "setting": "soluble rat FcRn [13]", "result": 9.96, "unit": "nM"}, {"measurement": "Kd", "setting": "soluble rat FcRn [14]", "result": 9.9, "unit": "nM"}, {"measurement": "Kd", "setting": "[15]", "result": 19.1, "unit": "nM"}, {"measurement": "Kd", "setting": "soluble rat FcRn [16]", "result": 3.29, "unit": "nM"}]}
{"binder": "532A-M0090-F11 (germlined LC changes) IgG (antibody, also called Germlined M90-F11 (GL)) heavy: EVQLLESGGGLVQPGGSLRLSCAASGFTFSEYAMGWVRQAPGKGLEWVSSIGSSGGQTKYADSVKGRFTISRDNSKNTLYLQMNSLRAEDTAVYYCARLSTGELYWGQGTLVTVSSASTKGPSVFPLAPSSKSTSGGTAALGCLVKDYFPEPVTVSWNSGALTSGVHTFPAVLQSSGLYSLSSVVTVPSSSLGTQTYICNVNHKPSNTKVDKKVEPKSCDKTHTCPPCAPELLGGPSVFLFPPKPKDTLMISRTPEVTCVVVDVSHEDPEVKFNWYVDGVEVHNAKTKPREEQYNSTYRVVSVLTVLHQDWLNGKEYKCKVSNKALPAPIEKTISKAKGQPREPQVYTLPPSPREPQVYTLPPSRDELTKNQVSLTCLVKGFYPSDIAVEWESNGQPENNYKTTPPVLDSDGSFFLYSKLTVDKSRWQQGNVFSCSVMHEALHNHYTQKSLSLSPGK light: QSALTQPASVSGSPGQSITISCTGTGSDVGSYNLVSWYQQHPGKAPKLMIYGDSQRPSGVSNRFSGSKSGNTASLTISGLQAEDEADYYCCSYAGSGIYVFGTGTKVTVLGQPKANPTVTLFPPSSEELQANKATLVCLISDFYPGAVTVAWKADGSPVKAGVETTKPSKQSNNKYAASSYLSLTPEQWKSHRSYSCQVTHEGSTVEKTVAPTECS", "values": [{"measurement": "Kd", "setting": "[17]", "result": 0.779, "unit": "nM"}, {"measurement": "koff", "setting": "[17]", "result": 0.000776, "unit": "s⁻¹"}, {"measurement": "kon", "setting": "[17]", "result": 996000, "unit": "M⁻¹ s⁻¹"}, {"measurement": "Kd", "setting": "[18]", "result": 35.2, "unit": "nM"}, {"measurement": "koff", "setting": "[18]", "result": 0.0152, "unit": "s⁻¹"}, {"measurement": "kon", "setting": "[18]", "result": 433000, "unit": "M⁻¹ s⁻¹"}, {"measurement": "Kd", "setting": "[19]", "result": 29.9, "unit": "nM"}, {"measurement": "koff", "setting": "[19]", "result": 0.0172, "unit": "s⁻¹"}, {"measurement": "kon", "setting": "[19]", "result": 574000, "unit": "M⁻¹ s⁻¹"}, {"measurement": "IC50", "setting": "[20]", "result": 0.38, "unit": "nM"}, {"measurement": "Kd", "setting": "[21]", "result": 0.172, "unit": "nM"}, {"measurement": "koff", "setting": "[21]", "result": 0.000764, "unit": "s⁻¹"}, {"measurement": "kon", "setting": "[21]", "result": "4.45e+06", "unit": "M⁻¹ s⁻¹"}]}
{"binder": "DX-2500 (germlined LC & allotype HC changes) (antibody, IgG, F allotype; 13 amino acid changes against parent M90-F11) heavy: EVQLLESGGGLVQPGGSLRLSCAASGFTFSEYAMGWVRQAPGKGLEWVSSIGSSGGQTKYADSVKGRFTISRDNSKNTLYLQMNSLRAEDTAVYYCARLSTGELYWGQGTLVTVSSASTKGPSVFPLAPSSKSTSGGTAALGCLVKDYFPEPVTVSWNSGALTSGVHTFPAVLQSSGLYSLSSVVTVPSSSLGTQTYICNVNHKPSNTKVDKRVEPKSCDKTHTCPPCAPELLGGPSVFLFPPKPKDTLMISRTPEVTCVVVDVSHEDPEVKFNWYVDGVEVHNAKTKPREEQYNSTYRVVSVLTVLHQDWLNGKEYKCKVSNKALPAPIEKTISKAKGQPREPQVYTLPPSPREPQVYTLPPSREEMTKNQVSLTCLVKGFYPSDIAVEWESNGQPENNYKTTPPVLDSDGSFFLYSKLTVDKSRWQQGNVFSCSVMHEALHNHYTQKSLSLSPGK light: QSALTQPASVSGSPGQSITISCTGTGSDVGSYNLVSWYQQHPGKAPKLMIYGDSQRPSGVSNRFSGSKSGNTASLTISGLQAEDEADYYCCSYAGSGIYVFGTGTKVTVLGQPKANPTVTLFPPSSEELQANKATLVCLISDFYPGAVTVAWKADGSPVKAGVETTKPSKQSNNKYAASSYLSLTPEQWKSHRSYSCQVTHEGSTVEKTVAPTECS", "values": [{"measurement": "Kd", "setting": "[17]", "result": 0.268, "unit": "nM"}, {"measurement": "koff", "setting": "[17]", "result": 0.000338, "unit": "s⁻¹"}, {"measurement": "kon", "setting": "[17]", "result": "1.26e+06", "unit": "M⁻¹ s⁻¹"}, {"measurement": "K off Fold improvement over DX2500", "setting": "[22]", "result": 1, "unit": "fold"}, {"measurement": "K off Fold improvement over M90-F11", "setting": "[22]", "result": 0.15, "unit": "fold"}, {"measurement": "KD Fold improvement over DX2500", "setting": "[22]", "result": 1, "unit": "fold"}, {"measurement": "KD Fold improvement over M90-F11", "setting": "[22]", "result": 0.21, "unit": "fold"}, {"measurement": "Kd", "setting": "[22]", "result": 87.9, "unit": "nM"}, {"measurement": "koff", "setting": "[22]", "result": 0.0197, "unit": "s⁻¹"}, {"measurement": "kon", "setting": "[22]", "result": 224000, "unit": "M⁻¹ s⁻¹"}, {"measurement": "Kd", "setting": "[19]", "result": 27.6, "unit": "nM"}, {"measurement": "koff", "setting": "[19]", "result": 0.0177, "unit": "s⁻¹"}, {"measurement": "kon", "setting": "[19]", "result": 642000, "unit": "M⁻¹ s⁻¹"}, {"measurement": "IC50", "setting": "[20]", "result": 0.65, "unit": "nM"}, {"measurement": "Kd", "setting": "[21]", "result": 0.16, "unit": "nM"}, {"measurement": "koff", "setting": "[21]", "result": 0.000336, "unit": "s⁻¹"}, {"measurement": "kon", "setting": "[21]", "result": "2.11e+06", "unit": "M⁻¹ s⁻¹"}]}
